120 sequences from the supplement of paper PMC10126150 can be followed below.

The test system of the data set is ATP. Kind of data set: switch fluorescence ratio, 500 uM ATP over buffer (Cy3 cluster intensity, sum of 5 cycles each) (fold (ratio)); higher = stronger signal-on switching upon ATP binding; sequences stand for … in TCGTCGGCAGCGTCAGATGTGTATAAGAGACAGTTTTTTTTTTTTTTTTTTTTTTTTT…TC. To be noted: aptamer strand: ATP DNA aptamer (quencher-CACCTGGGGGAGTATTGCGGAGGAAGG + anchor), 100 nM annealed; ATP concentration: 500 uM. Summed up: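 Switching-strand clusters labelled with Cy3 on a modified Illumina MiSeq flow-cell were annealed to 100 nM quencher-labelled ATP aptamer, imaged in selection buffer, and re-imaged after 15 min with 500 uM ATP at 22 °C. This was done over five cycles with NaOH stripping and re-annealing in between. The fluorescence ratio is summed target-cycle over summed buffer-cycle Cy3 intensity per cluster, averaged per switch-domain sequence, excluding clusters outside 100-1000 RFU.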

± gives the standard deviation of the averaged measurements.
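Further: ATP exposure 15 min at 22 °C before imaging.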

For ATTTCGATGT, the switch fluorescence ratio amounted to 1.03 ± 0.031.

For TGGGCGAACG, the switch fluorescence ratio is 0.9626 ± 0.0022. For GGGTGGCAAG the value was 0.996 ± 0.03. As to GCAGATAGGG, the switch fluorescence ratio was found to be 0.998 ± 0.016. The value for CAGGGGGGGG was 1.01 ± 0.031; that for CGAGGACTTC was 1.02 ± 0.012.

In the case of GGATTTACGT, the switch fluorescence ratio was determined as 1.02 ± 0.023. Turning to GCCATAGCTG, the switch fluorescence ratio was 1.007 ± 0.0029. For CTCTTGTGTT the value was 1.02 ± 0.048. The value for AATCTCGTGG was 0.995 ± 0.051. With TCGGGGGGCC, the switch fluorescence ratio was 1.02 ± 0.074. The value for ACGTGGGTAG was 0.987 ± 0.041; that for GATGAAAGAT was 1.003 ± 0.0085; that for ACAGTATGGT was 1.02 ± 0.029. For GGATATATTG the value was 1.02 ± 0.024. Take GTGGGGGGGG: the switch fluorescence ratio was determined as 0.995 ± 0.038. For TTTCTGGTCT the value was 1.03 ± 0.012; for TTTTTTCCCC, 1.04 ± 0.047; for CGGGAGACGG, 1.31 ± 0.26. As to TTTTTTTATG, the switch fluorescence ratio came to 0.989 ± 0.037. GTATTAGGCG: the switch fluorescence ratio is 1.02 ± 0.02. GTTTTCAGGT: the switch fluorescence ratio was found to be 0.992 ± 0.037. The value for GGACGACCGG was 1.02 ± 0.027; that for TTCTCTATTT was 0.983 ± 0.028.

GATATTAGAT: the switch fluorescence ratio was 1.02 ± 0.046. Regarding TAATTTTAAT, the switch fluorescence ratio stood at 1.025 ± 0.0087. As for AACTTTTTAC, the switch fluorescence ratio was determined as 1.05 ± 0.028. The value for ACAGGGGGGC was 1.06 ± 0.03; that for ATAAGGGTTT was 0.9905 ± 0.0095; that for TGGGAGGG was 1.04 ± 0.013. The value for TTTTTTATCT was 1.05 ± 0.07; that for GGGGCATAGG was 0.9777 ± 0.0015; that for GCGTGTGGTG was 1.02 ± 0.043. On to CATAAGGTTT, for which the switch fluorescence ratio is 0.971 ± 0.04.

Consider CCGGTGTAGA, for which the switch fluorescence ratio is 1.01 ± 0.034.

On to TACTTGTCGG, for which the switch fluorescence ratio was determined as 0.985 ± 0.025. With GAAATTTGGA, the switch fluorescence ratio stood at 0.991 ± 0.034. For TGTTTTTTTC the value was 1.06 ± 0.04; for CGCACCGGGT, 1.05 ± 0.015. The value for CGAATTCAGG was 1.012 ± 0.0068; that for ATAACTTGGG was 0.994 ± 0.041; that for GCGGTTGCTG was 0.954 ± 0.04. As to AGTGTATAAA, the switch fluorescence ratio came to 1.042 ± 0.0077. Turning to CTGGCGAGTA, the switch fluorescence ratio is 1.01 ± 0.016.

Consider AACGGCGCCA, for which the switch fluorescence ratio was 0.983 ± 0.025.

Turning to TGTGGTTTCC, the switch fluorescence ratio worked out at 1.01 ± 0.022. CGACGATACG: the switch fluorescence ratio turned out to be 0.991 ± 0.022. For ACCTGGGTGG the value was 1.03 ± 0.036; for AACTCAAGGG, 1.0096 ± 0.00058.

TAGATTGGCG: the switch fluorescence ratio came out at 0.981 ± 0.043. With GATCATTTGT, the switch fluorescence ratio is 0.9797 ± 0.0018. On to GCCGCCTGAT, for which the switch fluorescence ratio turned out to be 0.986 ± 0.021. The value for GCCGCTGGGA was 1.01 ± 0.022.

As for GAGGGCTAGG, the switch fluorescence ratio turned out to be 0.997 ± 0.023. For GGTAGAGGGT the value was 0.978 ± 0.066; for TTTTTTAAGC, 1.01 ± 0.018. Take TATTCTTTTT: the switch fluorescence ratio was determined as 0.968 ± 0.04. On to CCACGGTTAG, for which the switch fluorescence ratio came out at 0.981 ± 0.023. For AAGGGGAGGC, the switch fluorescence ratio came to 0.971 ± 0.041. The value for ACGAAGATGC was 1.24 ± 0.15; that for AAGGTGTGCC was 1.01 ± 0.03. For TAATACGTTT the value was 0.986 ± 0.032; for TGTGGTAAGT, 1.01 ± 0.062. For ATAGTCATAC the value was 1.25 ± 0.099. As for CGTAGGGTCA, the switch fluorescence ratio was found to be 0.9871 ± 0.0082. For TATTGGGGGT, the switch fluorescence ratio is 1.01 ± 0.044. Consider GGGAACACTT, for which the switch fluorescence ratio amounted to 0.998 ± 0.025. The value for TTGGGAGGAG was 1.01 ± 0.025; that for CGTGGATTTT was 0.972 ± 0.034. As for TTTTTCGTTA, the switch fluorescence ratio stood at 1.1 ± 0.083.

TCAGGGTGC: the switch fluorescence ratio amounted to 1.204 ± 0.0036. The value for CAGTCAGAGT was 0.985 ± 0.023; that for TTGTATTCTT was 1.04 ± 0.088; that for GCATTCGATG was 0.981 ± 0.013. For CGGTGGGATG the value was 0.9784 ± 0.0072.

On to AAAGTGGCGT, for which the switch fluorescence ratio was determined as 0.984 ± 0.08. On to ATTCAGTTGG, for which the switch fluorescence ratio was 0.9776 ± 0.0071. With AGGGAAGAGA, the switch fluorescence ratio came out at 1 ± 0.021. The value for CGGTTCGTGG was 1.004 ± 0.0068. The value for ACCTATGGGA was 1 ± 0.028; that for CGGATTTTAT was 1.02 ± 0.035. For GGAATTATTG the value was 1.08 ± 0.15. With TTTTTGTTAG, the switch fluorescence ratio stood at 0.965 ± 0.024.

Turning to ATTCTAGGTA, the switch fluorescence ratio amounted to 1 ± 0.015. As to AACATGGAGG, the switch fluorescence ratio is 0.968 ± 0.031. For the sequence CGGGCAGCTG, the switch fluorescence ratio came to 1.04 ± 0.048. Consider AATATATGGA, for which the switch fluorescence ratio was 1 ± 0.023. For TGCGGTGTGC the value was 1.04 ± 0.017; for CCAATAGACG, 1.01 ± 0.03; for CTCCGGGCGA, 4.47 ± 1.

As for CGAGGGGGGC, the switch fluorescence ratio is 1.02 ± 0.092. The value for TCCGGGGGAT was 1.32 ± 0.38. The value for GCTATGATAA was 0.9933 ± 0.0072. The value for GCGAAAAACG was 1.03 ± 0.056. For AGTCGCCCGC, the switch fluorescence ratio stood at 1.02 ± 0.032. In the case of GCATGCTTAA, the switch fluorescence ratio was found to be 0.9876 ± 0.006.

In the case of ATAAGGAAGT, the switch fluorescence ratio is 1.02 ± 0.028. For TGGCTTGGGG the value was 1.03 ± 0.051. For TACGGGGTTT the value was 0.996 ± 0.051; for TTTTATTAAT, 0.978 ± 0.04. For ACTTTTGCGG the value was 1.021 ± 0.0092; for CGGGGTCGTG, 0.9904 ± 0.0035.

Take TGTTCTAGG: the switch fluorescence ratio came to 1.01 ± 0.015. ACTATATGAT: the switch fluorescence ratio came out at 1.08 ± 0.043. For TTTTATTCCT the value was 1.04 ± 0.037; for TTTTTCCCGA, 1.018 ± 0.0038; for GCGTAATCCG, 1.02 ± 0.042. For the sequence GGGTGTTCCT, the switch fluorescence ratio was 0.989 ± 0.039. Consider GAAAAATGCC, for which the switch fluorescence ratio stood at 1.05 ± 0.05. For ATAAAGTTGG the value was 0.991 ± 0.0075; for CAAATAAGTA, 1.01 ± 0.033; for CGCTACTTGA, 1.027 ± 0.0082.

Take TTACTTTATT: the switch fluorescence ratio came out at 1.05 ± 0.053. For the sequence ATCAGAATGA, the switch fluorescence ratio was 1.013 ± 0.0023. As for TAAGGTGATG, the switch fluorescence ratio was 1.01 ± 0.046. For AGTCCTTTTT, the switch fluorescence ratio stood at 0.979 ± 0.021. With CGGACTGATT, the switch fluorescence ratio was 1 ± 0.064. As to CGTTTGTGCA, the switch fluorescence ratio was 0.98971 ± 6.6e-05. For TGTCAGGGGT the value was 1.03 ± 0.043; for GTTGTTTCAG, 0.969 ± 0.022.
